Here are results for one substance from PMC11035769.

In general, Kd refers to a measure of binding affinity in units of concentration. By koff is commonly meant the first-order rate constant of dissociation. One may read the kon as a measure of how fast the partners come together. A high value points to faster complex formation.

In the test the target is CD16a-His (human) (UniProt P08637). As to the kind of experiment: BLI; CD16a-His (250 ng/mL) immobilised on HIS1K biosensors; analytes at 3200 - 50 nM or 400 - 6.25 nM; 1X kinetics buffer (PBS pH 7.4, 0.02% Tween-20, 0.1% bovine serum albumin); 300 s association, 600 s dissociation; 1:1 fitting model; geometric means. (BLI is a label-free optical method that tracks binding on a fibre tip over time.)
UniProt P08637, sequence (P08637 17-208): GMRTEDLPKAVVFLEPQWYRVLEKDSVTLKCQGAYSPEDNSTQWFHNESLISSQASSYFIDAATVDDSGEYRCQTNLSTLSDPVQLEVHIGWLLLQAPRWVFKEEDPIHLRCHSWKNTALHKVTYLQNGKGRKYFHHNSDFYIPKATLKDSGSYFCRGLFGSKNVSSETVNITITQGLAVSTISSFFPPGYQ

For the substance “Immune Globulin Intravenous (Human) (antibody)”, the Kd was determined as 244 nM, the koff was determined as 0.0402 s⁻¹ and the kon worked out at 165000 M⁻¹ s⁻¹.
